{"source": "patent US20080124320A1", "about": "“Use of HMGB fragments as anti-inflammatory agents” (priority 2002, published 2008)", "key": {"RAW 264.7 cells [1]": {"system": "RAW 264.7 cells", "experiment": "TNF release from RAW 264.7 cells, L929 cytotoxicity bioassay", "assay_type": "cell-based, murine", "experimental": "(§1) Murine macrophage-like RAW 264.7 cells (American Type Culture Collection, Rockville, Md.) were cultured in RPMI 1640 medium (Life Technologies, Grand Island N.Y.) supplemented with 10% fetal bovine serum (Gemini, Catabasas, Calif.), penicillin and streptomycin (Life Technologies) and were used at 90% confluence in serum-free Opti-MEM I medium (Life Technologies, Grand Island, N.Y.). […] Polymyxin B was not used in experiments of synthetic peptide studies.\nTNF release was measured by a standard murine fibroblast L929 (ATCC, American Type Culture Collection, Rockville, Md.) cytotoxicity bioassay (Bianchi et al., Journal of Experimental Medicine 183:927-936, 1996) with the minimum detectable concentration of 30 pg/ml. […]\nThe effect of the mutants on TNF release from Murine macrophage-like RAW 264.7 cells (ATCC) was carried out as follows. […] Conditioned supernatants (containing TNF which had been released from the cells) were collected and TNF released from the cells was measured by a standard murine fibroblast L929 (ATCC) cytotoxicity bioassay (Bianchi et al., supra) with the minimum detectable concentration of 30 pg/ml. […]\nTo further examine the effect of HMGB1 B box on cytokine production, varying amounts of HMGB1 B box were evaluated for the effects on TNF, IL-1, and IL-6 production in murine macrophage-like RAW 264.7 cells. […]"}, "[2]": {"molecular_target": "Recombinant full length human HMGB1 (wild type HMGB1) (human)", "experiment": "cell-based or functional assay"}, "[3]": {"molecular_target": "RAGE on murine macrophage-like RAW 264.7 cells (mouse (murine RAW 264.7 cells)) (UniProt Q62151)", "sequence (Q62151 23-402)": "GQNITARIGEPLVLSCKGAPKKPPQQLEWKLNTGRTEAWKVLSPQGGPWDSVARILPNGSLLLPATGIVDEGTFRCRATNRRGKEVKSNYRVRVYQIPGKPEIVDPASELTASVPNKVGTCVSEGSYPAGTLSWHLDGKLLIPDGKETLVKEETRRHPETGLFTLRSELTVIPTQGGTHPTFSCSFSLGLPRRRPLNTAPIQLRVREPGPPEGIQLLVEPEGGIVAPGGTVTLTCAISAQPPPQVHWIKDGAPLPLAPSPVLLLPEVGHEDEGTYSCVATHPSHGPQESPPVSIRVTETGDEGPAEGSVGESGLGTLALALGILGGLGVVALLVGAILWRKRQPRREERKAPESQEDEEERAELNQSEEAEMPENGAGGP", "experiment": "cell-based or functional assay"}, "C3H/HeJ mice": {"system": "C3H/HeJ mice", "experiment": "Lethality and histology in C3H/HeJ mice", "assay_type": "in vivo, mouse", "details": "8 hours after administration"}, "RAW 264.7 cells [4]": {"system": "RAW 264.7 cells", "experiment": "IL-6 release from RAW 264.7 cells, ELISA", "assay_type": "cell-based, murine", "details": "B box 0-10 μg/ml, 8 hours (FIG. 2C)", "experimental": "as §1\nTo further examine the effect of HMGB1 B box on cytokine production, varying amounts of HMGB1 B box were evaluated for the effects on TNF, IL-1, and IL-6 production in murine macrophage-like RAW 264.7 cells. Conditioned media were harvested and measured for TNF, IL-1β and IL-6 levels. TNF levels were measured as described herein, and IL-1β and IL-6 levels were measured using the mouse IL-1β and IL-6 enzyme-linked immunosorbent assay (ELISA) kits (R&D System Inc., Minneapolis, Minn.) and N>5 for all experiments."}, "[5]": {"system": "Balb/c mice subjected to CLP", "experiment": "Cecal ligation and puncture (CLP) sepsis, survival of Balb/c mice", "assay_type": "in vivo, mouse", "details": "i.p. twice daily for 3 days beginning 24 hours after CLP", "experimental": "Cecal ligation and puncture (CLP) was performed as described previously (Fink and Heard, J. Surg. Res. 49:186-196, 1990; Wichmann et al., Crit. Care Med. 26:2078-2086, 1998; and Remick et al., Shock 4:89-95, 1995). Briefly, Balb/c mice were anesthetized with 75 mg/kg ketamine (Fort Dodge, Fort Dodge, Iowa) and 20 mg/kg of xylazine (Bohringer Ingelheim, St. Joseph, Mo.) intramuscularly. A midline incision was performed, and the cecum was isolated. A 6-0 prolene suture ligature was placed at a level 5.0 mm from the cecal tip away from the ileocecal valve.\nThe ligated cecal stump was then punctured once with a 22-gauge needle, without direct extrusion of stool. The cecum was then placed back into its normal intra-abdominal position. […] Mortality was recorded for up to 1 week after the procedure; survivors were followed for 2 weeks to ensure no late mortalities had occurred.\nTo determine whether the HMGB1 A box can inhibit the lethality of HMGB1 during sepsis, mice were subjected to cecal perforation and treated by administration of A box beginning 24 hours after the onset of sepsis. […] Survival was monitored twice daily for up to 2 weeks to ensure no late death occurred. […]\nPassive immunization of critically ill septic mice with anti-HMGB1 antibodies was also assessed. […] Survival was monitored for 2 weeks. […]"}, "[6]": {"system": "NF-κB-dependent ELAM promoter", "experiment": "NF-κB dependent ELAM promoter luciferase reporter in RAW 264.7 macrophages", "assay_type": "cell-based, murine", "details": "HMGB1 100 ng/ml or B box 10 μg/ml, 5 hours; decreased with MyD 88 dominant negative (FIG. 11B)", "experimental": "To examine the effects of HMGB1 or HMGB1 B box on the NF KB dependent ELAM promoter, the following experiment was carried out. RAW 264.7 macrophages were transiently co transfected with an expression plasmid encoding a murine MyD 88 dominant negative (DN) mutant (corresponding to amino acids 146 296), or empty vector, plus a luciferase reporter plasmid under the control of the NF κB dependent ELAM promoter, as described by Means et al. (J. Immunol. 166:4074 4082, 2001). A portion of the cells were then stimulated with full length HMGB1 (100 ng/ml), or purified HMGB1 B box (10 μg/ml), for 5 hours. Cells were then harvested and luciferase activity was measured, using standard methods. All transfections were performed in triplicate, repeated at least three times, and a single representative experiment is shown in FIG. 11B."}}, "data": [{"molecule": "fkdpnapkrlpsafflfcse (FKDPNAPKRLPSAFFLFCSE; listed as Homo sapiens) [1-20]", "values": [{"measurement": "TNF release by synthetic B box peptide fragments", "setting": "RAW 264.7 cells [1]; synthetic peptide 10 μg/ml, 10 hours, no polymyxin B (FIG. 3), listed as 1-20-mer", "result": "less potent than either the full length synthetic B box (1-74-mer), or full length HMGB1"}]}, {"molecule": "HMGB1 A box protein (Amino terminus + A box mutant of human HMGB1) (from UniProt A9RA84 1-85)", "values": [{"measurement": "inhibition of HMGB1 induced TNF release from RAW 264.7 cells (L929 cytotoxicity assay)", "setting": "[2]", "result": 7.5, "unit": "µg/mL"}]}, {"molecule": "Recombinant full length human HMGB1 (wild type HMGB1) (from UniProt A9RA84 1-215) (ligand)", "values": [{"measurement": "decrease of HMG-1 signaling (TNF release from RAW 264.7 cells) by anti-RAGE antibody", "setting": "[3]", "result": 40, "unit": "%"}]}, {"molecule": "B box: Recombinant human HMGB1 B box mutant polypeptide, SEQ ID NO:20, expressed with a GST gene fusion system in E. coli (protein, listed as Homo sapiens, GST fusion) FKDPNAPKRLPSAFFLFCSEYRPKIKGEHPGLSIGDVAKKLGEMWNNTAADDKQPYEKKAAKLKEKYEKDIAAY", "values": [{"measurement": "histology of heart", "setting": "C3H/HeJ mice", "result": "evidence of ischemia with loss of cross striation associated with amorphous pink cytoplasm in myocardial fibers"}, {"measurement": "histology of liver", "setting": "C3H/HeJ mice", "result": "mild acute inflammatory responses, with some hepatocyte dropout and apoptosis, and occasional polymorphonuclear leukocytes"}, {"measurement": "TNF protein expression over time versus medium only", "setting": "RAW 264.7 cells [1]; 10 μg/ml, 0-48 hours (FIGS. 2E, 2F)", "result": "stimulated TNF protein expression"}, {"measurement": "IL-6 release, dose response", "setting": "RAW 264.7 cells [4]", "result": "increased with increased amounts of B box"}]}, {"molecule": "A box: Recombinant human HMGB1 amino terminus + A box mutant, SEQ ID NO:21 (A box SEQ ID NO:22), GST fusion system (protein, listed as Homo sapiens, GST fusion) MGKGDPKKPTGKMSSYAFFVQTCREEHKKKHPDASVNFSEFSKKCSERWKTMSAKEKGKFEDMAKADKARYEREMKTYIPPKGET", "values": [{"measurement": "clinical condition of animals", "setting": "[5]; 60 μg/mouse", "result": "most died"}, {"measurement": "clinical condition of animals", "setting": "[5]; 600 μg/mouse", "result": "significantly more alert, active, and to resume feeding behavior"}]}, {"molecule": "HMGB1: Recombinant full length human HMGB1, SEQ ID NO:18; recombinant rat HMGB1 used in some experiments (protein, listed as Homo sapiens) MGKGDPKKPTGKMSSYAFFVQTCREEHKKKHPDASVNFSEFSKKCSERWKTMSAKEKGKFEDMAKADKARYEREMKTYIPPKGETKKKFKDPNAPKRLPSAFFLFCSEYRPKIKGEHPGLSIGDVAKKLGEMWNNTAADDKQPYEKKAAKLKEKYEKDIAAYRAKGKPDAAKKGVVKAEKSKKKKEEEEDEEDEEDEEEEEDEEDEEDEEEDDDDE", "values": [{"measurement": "luciferase activity (NF-κB dependent ELAM promoter)", "setting": "[6]", "result": "stimulated luciferase activity"}]}]}
